Reference: article PMC5283298

Assays:
[1] = biological target: microtubules (polymer of alpha and beta tubulin); assay: single-molecule TIRF microscopy on microtubules
HaloTag-KIF21B 1-657 = assay: single-molecule photobleaching step counting
[2] = biological target: HaloTag-KIF21B full-length (FL); assay: single-molecule photobleaching step counting

Chain of HaloTag-KIF21B full-length (FL) (natural protein) (O75037 whole entry): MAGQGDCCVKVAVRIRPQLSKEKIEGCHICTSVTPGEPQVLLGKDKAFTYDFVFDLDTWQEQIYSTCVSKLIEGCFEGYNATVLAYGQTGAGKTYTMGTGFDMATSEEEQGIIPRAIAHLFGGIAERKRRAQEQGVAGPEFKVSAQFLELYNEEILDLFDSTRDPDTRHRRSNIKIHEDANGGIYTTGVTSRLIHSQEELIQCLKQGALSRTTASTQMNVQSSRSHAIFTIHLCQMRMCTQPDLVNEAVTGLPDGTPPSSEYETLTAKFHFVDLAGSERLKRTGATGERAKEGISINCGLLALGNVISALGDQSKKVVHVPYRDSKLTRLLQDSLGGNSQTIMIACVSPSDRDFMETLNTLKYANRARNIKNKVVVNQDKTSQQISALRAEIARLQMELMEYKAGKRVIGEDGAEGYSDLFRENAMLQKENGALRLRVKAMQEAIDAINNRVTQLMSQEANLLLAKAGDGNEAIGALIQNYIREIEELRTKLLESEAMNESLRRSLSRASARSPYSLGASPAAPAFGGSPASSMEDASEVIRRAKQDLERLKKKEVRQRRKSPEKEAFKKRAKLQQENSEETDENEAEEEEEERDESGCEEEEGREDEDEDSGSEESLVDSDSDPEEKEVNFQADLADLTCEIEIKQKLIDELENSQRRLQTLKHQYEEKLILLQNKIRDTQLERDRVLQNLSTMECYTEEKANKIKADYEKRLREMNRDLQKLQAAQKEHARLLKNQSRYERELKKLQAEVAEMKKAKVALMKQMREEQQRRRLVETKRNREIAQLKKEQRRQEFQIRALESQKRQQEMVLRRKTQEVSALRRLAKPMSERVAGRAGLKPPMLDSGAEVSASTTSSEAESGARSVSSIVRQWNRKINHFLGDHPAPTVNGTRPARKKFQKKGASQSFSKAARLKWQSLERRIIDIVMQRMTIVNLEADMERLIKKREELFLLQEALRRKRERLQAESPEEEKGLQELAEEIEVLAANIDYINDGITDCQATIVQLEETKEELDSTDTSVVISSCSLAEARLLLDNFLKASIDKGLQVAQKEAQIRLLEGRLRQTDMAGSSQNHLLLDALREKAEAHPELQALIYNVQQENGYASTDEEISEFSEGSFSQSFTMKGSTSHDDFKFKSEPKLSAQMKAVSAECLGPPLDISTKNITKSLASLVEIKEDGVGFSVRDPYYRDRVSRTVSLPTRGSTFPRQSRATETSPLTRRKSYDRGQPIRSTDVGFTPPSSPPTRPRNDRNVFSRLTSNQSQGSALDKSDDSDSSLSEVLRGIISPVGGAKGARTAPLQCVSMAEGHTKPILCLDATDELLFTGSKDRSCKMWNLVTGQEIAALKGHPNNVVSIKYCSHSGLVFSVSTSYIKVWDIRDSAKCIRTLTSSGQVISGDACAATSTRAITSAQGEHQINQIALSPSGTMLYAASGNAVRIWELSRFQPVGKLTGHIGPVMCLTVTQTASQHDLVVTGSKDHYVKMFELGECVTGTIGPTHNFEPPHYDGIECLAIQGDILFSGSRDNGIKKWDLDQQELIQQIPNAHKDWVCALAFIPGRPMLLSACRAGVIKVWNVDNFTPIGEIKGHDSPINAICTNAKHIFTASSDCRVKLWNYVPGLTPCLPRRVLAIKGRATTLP
Chain of HaloTag-KIF21B 1-657 (domain or fragment) (O75037 1-657): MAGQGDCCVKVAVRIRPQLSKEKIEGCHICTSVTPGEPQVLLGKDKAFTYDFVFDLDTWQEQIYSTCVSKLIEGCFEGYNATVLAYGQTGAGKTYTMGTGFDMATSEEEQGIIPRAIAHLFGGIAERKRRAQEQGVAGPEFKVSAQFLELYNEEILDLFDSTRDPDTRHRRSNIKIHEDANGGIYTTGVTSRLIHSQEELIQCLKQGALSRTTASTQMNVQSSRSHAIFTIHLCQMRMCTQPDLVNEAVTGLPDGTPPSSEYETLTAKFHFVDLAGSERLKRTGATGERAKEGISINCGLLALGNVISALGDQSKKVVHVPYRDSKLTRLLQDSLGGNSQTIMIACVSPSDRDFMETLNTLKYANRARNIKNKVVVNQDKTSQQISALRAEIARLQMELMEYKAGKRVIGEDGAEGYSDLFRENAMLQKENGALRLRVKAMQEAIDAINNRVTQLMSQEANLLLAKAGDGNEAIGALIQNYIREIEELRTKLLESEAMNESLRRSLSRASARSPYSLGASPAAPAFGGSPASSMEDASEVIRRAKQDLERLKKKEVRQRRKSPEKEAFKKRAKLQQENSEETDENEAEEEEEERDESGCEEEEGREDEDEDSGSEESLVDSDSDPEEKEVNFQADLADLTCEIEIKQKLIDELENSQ
Chain of microtubules (polymer of alpha and beta tubulin) (P68363 whole entry, chain 1 of 2): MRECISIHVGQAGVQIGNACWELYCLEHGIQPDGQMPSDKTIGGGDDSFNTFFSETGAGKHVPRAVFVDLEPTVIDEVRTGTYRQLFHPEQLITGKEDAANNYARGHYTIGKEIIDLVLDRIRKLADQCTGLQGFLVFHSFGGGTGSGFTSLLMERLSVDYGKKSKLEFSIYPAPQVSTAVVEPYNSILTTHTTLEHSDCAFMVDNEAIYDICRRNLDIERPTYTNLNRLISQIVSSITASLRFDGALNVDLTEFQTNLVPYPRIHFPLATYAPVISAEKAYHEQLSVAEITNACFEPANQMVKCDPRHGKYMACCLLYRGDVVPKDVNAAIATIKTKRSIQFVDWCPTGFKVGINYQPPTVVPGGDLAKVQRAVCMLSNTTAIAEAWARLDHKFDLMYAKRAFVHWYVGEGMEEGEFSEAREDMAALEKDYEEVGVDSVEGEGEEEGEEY
Chain of microtubules (polymer of alpha and beta tubulin) (A8K068 whole entry, chain 2 of 2, further chain): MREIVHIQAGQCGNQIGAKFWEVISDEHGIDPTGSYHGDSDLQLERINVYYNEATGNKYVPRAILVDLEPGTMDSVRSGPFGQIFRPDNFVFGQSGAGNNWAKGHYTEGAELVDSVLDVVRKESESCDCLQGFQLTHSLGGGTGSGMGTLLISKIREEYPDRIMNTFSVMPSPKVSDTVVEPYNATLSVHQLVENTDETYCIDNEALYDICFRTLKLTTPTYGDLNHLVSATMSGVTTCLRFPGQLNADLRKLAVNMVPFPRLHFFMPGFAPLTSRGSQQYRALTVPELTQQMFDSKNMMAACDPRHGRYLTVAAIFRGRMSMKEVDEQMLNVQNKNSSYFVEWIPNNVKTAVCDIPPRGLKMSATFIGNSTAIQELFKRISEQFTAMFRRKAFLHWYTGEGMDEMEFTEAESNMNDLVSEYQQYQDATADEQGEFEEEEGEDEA

particles per μm MT (particles/μm MT) [1] | stoichiometry N (HaloTag-KIF21B 1-657) | stoichiometry N [2] | Substance
0.067 | 2 | – | HaloTag-KIF21B 1-657 (domain or fragment)
0.5 | – | 2 | HaloTag-KIF21B full-length (FL) (natural protein)
